Here are results for two molecules from US20090181035A1 (Genentech, published 2009).

Experiment [1] has as its target T1, human PlexinD1 expressed on human umbilical vein endothelial cells (HUVECs) (human, UniProt Q9Y4D7 47-1925).
T1 construct: whole, on cells; Endogenous receptor on primary cells; also called native PlexinD1
The experiment in a line: radioligand cell binding assay on HUVECs; radioligand binding on HUVECs (endogenous human PlexinD1); Fc fusion, not His.

In experiment [2] the target is T2, murine PlexinD1 expressed on mouse microvascular endothelial (MS1) cells (mouse, UniProt Q3UH93 49-1925).
T2 construct: whole, on cells; Endogenous receptor on a cell line
The experiment in a line: FACS on MS1 cells.

Experiment [3] has as its target T3, PlxD1-Fc (human PlexinD1 ECD Met1 to Ala1271 fused to the Fc portion of human IgG1) (human, UniProt Q9Y4D7 47-1271).
T3 construct: range 1-1271; also called PlexinD1 immunoadhesin; soluble PlexinD1; not shown: Fc portion of human IgG1
T3 sequence (looked up): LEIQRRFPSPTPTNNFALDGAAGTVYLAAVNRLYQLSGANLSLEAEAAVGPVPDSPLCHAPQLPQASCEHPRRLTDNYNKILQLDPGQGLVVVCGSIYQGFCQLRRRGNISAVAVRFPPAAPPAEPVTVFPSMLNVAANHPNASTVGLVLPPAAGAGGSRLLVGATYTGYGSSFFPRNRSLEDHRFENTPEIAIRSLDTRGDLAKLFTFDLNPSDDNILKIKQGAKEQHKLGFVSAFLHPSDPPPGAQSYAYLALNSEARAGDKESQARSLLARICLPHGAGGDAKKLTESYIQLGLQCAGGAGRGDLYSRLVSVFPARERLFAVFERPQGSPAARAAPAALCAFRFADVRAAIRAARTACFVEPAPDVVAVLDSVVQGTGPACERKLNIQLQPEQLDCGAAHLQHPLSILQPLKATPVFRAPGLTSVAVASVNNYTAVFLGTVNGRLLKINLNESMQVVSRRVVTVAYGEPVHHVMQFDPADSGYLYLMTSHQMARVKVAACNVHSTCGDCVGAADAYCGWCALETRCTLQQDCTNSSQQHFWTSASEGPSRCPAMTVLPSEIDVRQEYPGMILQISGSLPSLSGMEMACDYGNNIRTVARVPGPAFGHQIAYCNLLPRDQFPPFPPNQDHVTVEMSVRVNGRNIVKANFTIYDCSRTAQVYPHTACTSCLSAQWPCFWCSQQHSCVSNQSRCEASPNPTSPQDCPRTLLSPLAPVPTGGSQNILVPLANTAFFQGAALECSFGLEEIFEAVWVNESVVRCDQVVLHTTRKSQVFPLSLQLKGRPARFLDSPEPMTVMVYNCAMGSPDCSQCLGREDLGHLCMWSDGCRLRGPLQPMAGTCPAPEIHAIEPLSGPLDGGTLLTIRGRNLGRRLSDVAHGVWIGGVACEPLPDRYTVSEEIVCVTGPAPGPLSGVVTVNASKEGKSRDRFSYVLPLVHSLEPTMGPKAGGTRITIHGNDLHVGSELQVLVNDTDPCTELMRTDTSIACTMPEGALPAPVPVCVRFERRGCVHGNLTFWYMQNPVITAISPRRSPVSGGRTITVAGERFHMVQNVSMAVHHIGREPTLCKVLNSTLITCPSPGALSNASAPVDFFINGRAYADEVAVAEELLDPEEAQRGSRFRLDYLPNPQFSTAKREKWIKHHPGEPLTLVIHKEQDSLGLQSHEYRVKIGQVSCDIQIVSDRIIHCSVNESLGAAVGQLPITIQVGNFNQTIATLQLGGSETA
Kind of experiment: SPR (Biacore 3000, 25 C); PlxD1-Fc amine-coupled on CM5 chip, Sema3E^SD-His as analyte; one-to-one model; SPR, 25 C; PlxD1-Fc on the chip, His-tagged Sema3E^SD as analyte. On the procedure: Binding experiments were performed by SPR measurements on a Biacore 3000 instrument (Biacore Inc.) at 25° C. PlxD1-Fc constructed as described in Example 1 was immobilized at high surface density (˜10,000 RU) on an activated CM5 chip using standard amine coupling procedures as described by the manufacturer. PlxD1-Fc was injected at a concentration of 10 μg/ml in 20 mM sodium acetate, pH 4.5 and at a flow rate of 5 μl/min until desired surface densities, measured in response units (RU), were reached. Unreacted groups were blocked by injecting 1 M ethanolamine. To perform binding assays, different concentrations of Sema3E^SD-His were injected in 10 mM HEPES pH 7.4, 150 mM NaCl, 0.005% v/v Surfactant P20, at a flow rate of 5 μl/min. Blank surfaces were used for background corrections. Injections of 10 mM glycine, pH 3.0 at 100 μl/min for 1 min were used to regenerate surfaces between two binding experiments. Kinetic analysis was performed with binding sensorgrams of different analyte concentrations using the BIAevaluation Software (Biacore Inc.). An one-to-one binding model was used to fit the experimental data for association and dissociation reactions. Dissociation constants were calculated from the on and off rates. […] Radioligand cell binding assays were performed and the dissociation constant for Sema3E^SD-Fc binding to HUVECs was calculated to 4 nM.
(Surface plasmon resonance follows binding to a sensor surface in real time, without labels.)

What is called Kd is the constant that tells how readily two partners part at equilibrium. Low readings indicate a tighter complex, high ones a looser complex.

B1: Sema3E^SD-Fc (human Semaphorin 3E Met1 to Ala554 of SEQ ID NO: 1 with the Fc portion of human IgG1 as C-terminal fusion partner) (Fc fusion)
chain: ADTTHPRLRLSHKELLNLNRTSIFHSPFGFLDLHTMLLDEYQERLFVGGRDLVYSLSLERISDGYKEIHWPSTALKMEECIMKGKDAGECANYVRVLHHYNRTHLLTCGTGAFDPVCAFIRVGYHLEDPLFHLESPRSERGRGRCPFDPSSSFISTLIGSELFAGLYSDYWSRDAAIFRSMGRLAHIRTEHDDERLLKEPKFVGSYMIPDNEDRDDNKVYFFFTEKALEAENNAHAIYTRVGRLCVNDVGGQRILVNKWSTFLKARLVCSVPGMNGIDTYFDELEDVFLLPTRDHKNPVIFGLFNTTSNIFRGHAICVYHMSSIRAAFNGPYAHKEGPEYHWSVYEGKVPYPRPGSCASKVNGGRYGTTKDYPDDAIRFARSHPLMYQAIKPAHKKPILVKTDGKYNLKQIAVDRVEAEDGQYDVLFIGTDNGIVLKVITIYNQEMESMEEVILEELQIFKDPVPIISMEISSKRQQLYIGSASAVAQVRFHHCDMYGSACADCCLARDPYCAWDGISCSRYYPTGTHA
notes: The construct as cloned starts at Met1; also called Sema3E^SD-Fc immunoadhesin; not shown: Fc portion of human IgG1
In the case of B1, in experiment [1], the Kd stood at 0.004 µM. In addition, in experiment [2], the binding result is recorded as “binds”.

B2: Sema3E^SD-His (human Semaphorin 3E Ala26 to Arg560 of SEQ ID NO: 1 with an N-terminal Histidine tag) (ligand, not shown: small tags and cut ends)
chain: ADTTHPRLRLSHKELLNLNRTSIFHSPFGFLDLHTMLLDEYQERLFVGGRDLVYSLSLERISDGYKEIHWPSTALKMEECIMKGKDAGECANYVRVLHHYNRTHLLTCGTGAFDPVCAFIRVGYHLEDPLFHLESPRSERGRGRCPFDPSSSFISTLIGSELFAGLYSDYWSRDAAIFRSMGRLAHIRTEHDDERLLKEPKFVGSYMIPDNEDRDDNKVYFFFTEKALEAENNAHAIYTRVGRLCVNDVGGQRILVNKWSTFLKARLVCSVPGMNGIDTYFDELEDVFLLPTRDHKNPVIFGLFNTTSNIFRGHAICVYHMSSIRAAFNGPYAHKEGPEYHWSVYEGKVPYPRPGSCASKVNGGRYGTTKDYPDDAIRFARSHPLMYQAIKPAHKKPILVKTDGKYNLKQIAVDRVEAEDGQYDVLFIGTDNGIVLKVITIYNQEMESMEEVILEELQIFKDPVPIISMEISSKRQQLYIGSASAVAQVRFHHCDMYGSACADCCLARDPYCAWDGISCSRYYPTGTHAKRRFRR
notes: Produced by transient transfection of CHO cells; also called His-tagged Sema3E^SD; soluble Sema3E sema domain construct
For the molecule B2, the affinity in experiment [3], expressed as Kd, was 0.024 µM.
